Reference: article PMC9808001

Columns and labels:
Assay in all cases: BLI; 25 nM WDR44 (334–389) wild type or mutant immobilised on anti-penta-His tips, […] nM Rab11; responses normalised to the mean wildtype response; 30 °C; 20 mM Hepes pH 7.5, 150 mM NaCl, 1 mM MgCl2, bovine serum albumin, 0.002% Tween-20
[1] = target: Strep-His WDR44 (334–389) I359A (human) (UniProt Q5JSH3)
[2] = target: Strep-His WDR44 (334–389) K360E (human) (UniProt Q5JSH3)
[3] = target: Strep-His WDR44 (334–389) L354A (human) (UniProt Q5JSH3)
Sequence of Strep-His WDR44 (334–389) L354A (human) (Q5JSH3 334-389 L354A): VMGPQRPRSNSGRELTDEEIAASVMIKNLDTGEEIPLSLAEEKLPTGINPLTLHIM

[4] = target: Strep-His WDR44 (334–389) L370A (human) (UniProt Q5JSH3)
Sequence of Strep-His WDR44 (334–389) L370A (human) (Q5JSH3 334-389 L370A): as the sequence (Q5JSH3 334-389 L354A) above, with A21L, L37A counted along it

Measured: percent decrease in complex formation against wild type

Sequence of Strep-His WDR44 (334–389) K360E (human) (Q5JSH3 334-389 K360E): as the sequence (Q5JSH3 334-389 L354A) above, with A21L, K27E counted along it
Sequence of Strep-His WDR44 (334–389) I359A (human) (Q5JSH3 334-389 I359A): as the sequence (Q5JSH3 334-389 L354A) above, with A21L, I26A counted along it

Rab11a (GTPγS-loaded) (from UniProt P62491 1-216) (natural protein)
> 95%: [1] | [2] | [3] | [4]
